{"source": "the RNAGym collection of RNA variant scans (doi:10.1073/pnas.2313332121)", "parents": {"B1": {"name": "TPR 5TU (parent)", "chain": "GGAUCUUCUCGAUCUAACAAAAAAGACAAAUCUGCCACAAAGCUUGAGAGCAUCUUCGGAUGCAGAGGCGGCAGCCUUCGGUGGCGCGAUAGCGCCAACGUUCUCAACUAUGACACGCAAAACGCGUGCUCCGUUGAAUGGAGUUUAUCAUG"}}, "note": "Variants at the floor of the assay were thinned out.", "data": [{"variants_of": "B1", "assay": "polymerase ribozyme fitness, log enrichment relative to wild type (log ratio); higher = more active; in vitro selection for triplet polymerase activity", "procedure,_shortened": "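Each subunit of a heterodimeric triplet polymerase ribozyme was represented by a PCR-built, transcribed mutant library that underwent triplicate single-round in vitro selection with frozen incubation at −7 °C. Extended constructs were recovered by gel excision, streptavidin-bead capture and RT-PCR, and Illumina sequencing of input and output libraries kept genotypes with ≥10 input reads and ≥1 read per output. Fitness is the logarithm of genotype enrichment relative to wild-type enrichment, from inverse-variance-weighted replicate averages, with a logarithm base of 2.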", "values": [{"variant": "U4A C57A C75G U134G", "polymerase ribozyme fitness (log ratio)": "≤ -4.2"}, {"variant": "A3G U13G U144C", "polymerase ribozyme fitness (log ratio)": 0.104}, {"variant": "A3G A20C U53A G81C A121G", "polymerase ribozyme fitness (log ratio)": -1.59}, {"variant": "A3G C5G U15C G84U C108U A121U", "polymerase ribozyme fitness (log ratio)": "≤ -4.2"}, {"variant": "A3U A12G A22C A37U A47G A97G", "polymerase ribozyme fitness (log ratio)": -3.5}, {"variant": "A3G A89G C93U A137C A138U G140A", "polymerase ribozyme fitness (log ratio)": "≤ -4.2"}, {"variant": "U4A G48C C75A C99A U135C A150C", "polymerase ribozyme fitness (log ratio)": "≤ -4.2"}, {"variant": "A3G G50C C76A A115U C131G", "polymerase ribozyme fitness (log ratio)": "≤ -4.2"}, {"variant": "U4A C43U G65U U77C U111G", "polymerase ribozyme fitness (log ratio)": "≤ -4.2"}, {"variant": "A3U A29G A49C G92A G124U G140A", "polymerase ribozyme fitness (log ratio)": "≤ -4.2"}, {"variant": "A3G A21C A60G C76A C85G", "polymerase ribozyme fitness (log ratio)": -0.977}, {"variant": "U4A U6A A28U A30G U44A G59C A60G C87U A89U A97C A107U", "polymerase ribozyme fitness (log ratio)": "≤ -4.2"}, {"variant": "U4A C18U G67A C93G G124A", "polymerase ribozyme fitness (log ratio)": "≤ -4.2"}, {"variant": "A3U U7C U56A G58C A60C G70C G88A G94A A115U", "polymerase ribozyme fitness (log ratio)": "≤ -4.2"}, {"variant": "A3G A113G C118G", "polymerase ribozyme fitness (log ratio)": -3.65}, {"variant": "U4C A16C U55A G74U C85U C87U C103U U146A A147C", "polymerase ribozyme fitness (log ratio)": "≤ -4.2"}, {"variant": "A3U A30U G86U C87U", "polymerase ribozyme fitness (log ratio)": "≤ -4.2"}, {"variant": "A3G C5G G84A G88A", "polymerase ribozyme fitness (log ratio)": -3.09}, {"variant": "A3U C32G A49U", "polymerase ribozyme fitness (log ratio)": "≤ -4.2"}, {"variant": "A3G C18U U56G G94A A110U A138U U139A", "polymerase ribozyme fitness (log ratio)": "≤ -4.2"}, {"variant": "A3G U4G C32U U56A G74A G81A A120G", "polymerase ribozyme fitness (log ratio)": -0.184}, {"variant": "A3G C14U G34A G48A C85A G126U G136A U144G", "polymerase ribozyme fitness (log ratio)": "≤ -4.2"}, {"variant": "A3G A26U C72U", "polymerase ribozyme fitness (log ratio)": "≤ -4.2"}, {"variant": "U4A A49G G50C A66C C76G C93U", "polymerase ribozyme fitness (log ratio)": "≤ -4.2"}, {"variant": "A3U C36U G67U C95A", "polymerase ribozyme fitness (log ratio)": "≤ -4.2"}, {"variant": "A3G C8U G25C U45G U55G G81C C95U C114U G117U A120G A122G", "polymerase ribozyme fitness (log ratio)": "≤ -4.2"}, {"variant": "A3G A16G A24C A49G G80C", "polymerase ribozyme fitness (log ratio)": "≤ -4.2"}, {"variant": "U4A C43G", "polymerase ribozyme fitness (log ratio)": "≤ -4.2"}, {"variant": "A3U A21U G50U G58A U77A G100U A137G", "polymerase ribozyme fitness (log ratio)": "≤ -4.2"}, {"variant": "A3U C5G U7C A30C C36U U55A A60G C75U C87G U101A A119C C123G G143U", "polymerase ribozyme fitness (log ratio)": "≤ -4.2"}, {"variant": "U4A G59A", "polymerase ribozyme fitness (log ratio)": -1.06}, {"variant": "U4C A12U C57G C85U A98G G128U", "polymerase ribozyme fitness (log ratio)": "≤ -4.2"}, {"variant": "A3U C51A G124C", "polymerase ribozyme fitness (log ratio)": -2.87}, {"variant": "A3G A41U A47G U101G G136U", "polymerase ribozyme fitness (log ratio)": "≤ -4.2"}, {"variant": "A3U G65A C85A", "polymerase ribozyme fitness (log ratio)": -3.12}, {"variant": "A3U A26G U61A G92A", "polymerase ribozyme fitness (log ratio)": "≤ -4.2"}, {"variant": "U4A A12U G80U G81U G92C", "polymerase ribozyme fitness (log ratio)": -0.513}, {"variant": "U4C A16C A17C", "polymerase ribozyme fitness (log ratio)": -0.602}, {"variant": "A3U G94A", "polymerase ribozyme fitness (log ratio)": -1.21}, {"variant": "A3U A21C C69A C76A G86A A89G A122G", "polymerase ribozyme fitness (log ratio)": "≤ -4.2"}, {"variant": "A3G U13G A21U A40U C69A C79G G80A G83U C85U G86U G136C", "polymerase ribozyme fitness (log ratio)": "≤ -4.2"}, {"variant": "U4A C38U C57A A66G C96G C105A C123G G124A C129G", "polymerase ribozyme fitness (log ratio)": "≤ -4.2"}, {"variant": "U4A A17G C35A G59C U135A", "polymerase ribozyme fitness (log ratio)": "≤ -4.2"}, {"variant": "U4A C18U A64C G68A C79G", "polymerase ribozyme fitness (log ratio)": "≤ -4.2"}, {"variant": "A3U A24G C32G", "polymerase ribozyme fitness (log ratio)": -4.15}, {"variant": "A3U G88A A110G", "polymerase ribozyme fitness (log ratio)": "≤ -4.2"}, {"variant": "U4A G25U C35U C87A C93G", "polymerase ribozyme fitness (log ratio)": "≤ -4.2"}, {"variant": "A3G C116U G124A A142G", "polymerase ribozyme fitness (log ratio)": -2.6}, {"variant": "A3U C85U C96U C108G G140C", "polymerase ribozyme fitness (log ratio)": "≤ -4.2"}, {"variant": "A3U A12G C87G", "polymerase ribozyme fitness (log ratio)": -4.02}, {"variant": "A3U A30G U104C C105A C114G A115G A122G C129A", "polymerase ribozyme fitness (log ratio)": "≤ -4.2"}, {"variant": "U4A C38U A40U G42U A73G U82C G94U A107G", "polymerase ribozyme fitness (log ratio)": "≤ -4.2"}, {"variant": "A3G C36G U77C", "polymerase ribozyme fitness (log ratio)": "≤ -4.2"}, {"variant": "U4A A19C A41U U56C G124A G143A", "polymerase ribozyme fitness (log ratio)": -3.84}, {"variant": "U4A A22C U56A G124U U135C", "polymerase ribozyme fitness (log ratio)": -3.48}, {"variant": "A3U U6A A39G C96G G124U G141A", "polymerase ribozyme fitness (log ratio)": -3.93}, {"variant": "A3U G84U", "polymerase ribozyme fitness (log ratio)": -2.4}, {"variant": "A3U G84A", "polymerase ribozyme fitness (log ratio)": -1.14}, {"variant": "A3U A28C C63U C85U A142C G152U", "polymerase ribozyme fitness (log ratio)": -3.91}, {"variant": "A3G G50C A120G C129A", "polymerase ribozyme fitness (log ratio)": "≤ -4.2"}, {"variant": "U4A G83U C95G G124U U148C", "polymerase ribozyme fitness (log ratio)": "≤ -4.2"}, {"variant": "U4C A12C A24U C27G A28G U44A G88A C116U G143A", "polymerase ribozyme fitness (log ratio)": "≤ -4.2"}, {"variant": "A3G C38A G124C U134G G136U U146G", "polymerase ribozyme fitness (log ratio)": "≤ -4.2"}, {"variant": "A3C U101G C105U A138C", "polymerase ribozyme fitness (log ratio)": -4.17}, {"variant": "A3U A91C", "polymerase ribozyme fitness (log ratio)": -3.34}, {"variant": "A3G C27U G86A", "polymerase ribozyme fitness (log ratio)": -3.94}, {"variant": "U4A C5G A22U G25U A30U C63U A66C G143U", "polymerase ribozyme fitness (log ratio)": "≤ -4.2"}, {"variant": "A3G A41U C96U", "polymerase ribozyme fitness (log ratio)": -1.56}, {"variant": "U4A A16U A17G A21U A24U G84A C114U A122U A142C", "polymerase ribozyme fitness (log ratio)": "≤ -4.2"}, {"variant": "A3G A147U", "polymerase ribozyme fitness (log ratio)": 1.09}, {"variant": "U4A A23U C35U G46A G84U C103U U139A", "polymerase ribozyme fitness (log ratio)": "≤ -4.2"}, {"variant": "A3U C85G C93G G136A A142C", "polymerase ribozyme fitness (log ratio)": "≤ -4.2"}, {"variant": "A3U C10U U61A G65A A66C", "polymerase ribozyme fitness (log ratio)": "≤ -4.2"}, {"variant": "A3U G81C", "polymerase ribozyme fitness (log ratio)": -0.0386}, {"variant": "A3G G84C", "polymerase ribozyme fitness (log ratio)": -1.98}, {"variant": "U4A A17C G59C A119G", "polymerase ribozyme fitness (log ratio)": -0.404}, {"variant": "A3G C27U C51A G59A C85U G88A A115U G141A", "polymerase ribozyme fitness (log ratio)": "≤ -4.2"}, {"variant": "A3G U4A C54U U102G C125G", "polymerase ribozyme fitness (log ratio)": -3.99}, {"variant": "A3G C10A A12G G59U A66G C72G C85U", "polymerase ribozyme fitness (log ratio)": "≤ -4.2"}, {"variant": "U4A A20U G50C U55A A73G G84A G88C C132U U135A", "polymerase ribozyme fitness (log ratio)": "≤ -4.2"}, {"variant": "A3U U82C U101A", "polymerase ribozyme fitness (log ratio)": -0.128}, {"variant": "A3U G83A", "polymerase ribozyme fitness (log ratio)": -1.47}, {"variant": "A3U G83C", "polymerase ribozyme fitness (log ratio)": -0.632}]}]}
